In paper PMC7145517 one finds Kd and fold loss in binding against wild-type Cfp1 data, which are given here for two substances.

Test [1] deals with Myceliophteria thermophila RbBP5 β-propeller domain (residues 1-347). In words: ITC. The conditions noted are these: parent: 0.25.
Test [2] deals with Myceliophteria thermophila RbBP5 β-propeller domain (residues 1-347) (Myceliophteria thermophila). In words: ITC; VP-ITC; CtCfp1 RID (350 μM) injected into MtRbBP5 β-propeller (35 μM); 20°C; 50 mM Tris pH 8.0, 200 mM NaCl, 2.5 mM β-mercaptoethanol.

With “Chaetomium thermophilum Cfp1 RID domain (residues 322-508) Y380A”, the Kd in test [1] worked out at 4.06 µM.

“Chaetomium thermophilum Cfp1 RID domain, Tyr380 substituted by an alanine (domain or fragment)” gave a fold loss in binding against wild-type Cfp1 in test [2] of 20 fold.
